We go through 2 molecules from paper PMC9299485, “4‐Iodopyrimidine Labeling Reveals Nuclear Translocation and Nuclease Activity for Both MIF and MIF2” (Chemistry (Weinheim an Der Bergstrasse, Germany), 2021).

The series has as its system human genomic DNA. In words: Nuclease assay of MIF and MIF2 on human genomic DNA (agarose gel). The class given is biochemical. As to conditions: for concentration giving complete hgDNA cleavage: within 2 h, 37°C, Mg2+. How it is done: 7. Nuclease activity of MIF and MIF2.
Human genomic DNA was obtained from RPE-1 cells by DNA extraction following the protocol described in literature.[10] The nuclease assays were conducted by following the procedure described previously.[8] hgDNA (200 ng/reaction) was incubated with MIF or MIF2 in final concentration of 0.62 -20 µM as indicated in 10Mm Tris-HCl buffer (pH 7.0) containing 10mM MgCl2 (B and C) or specific buffer as indicated at 37°C for two hours. The reaction was terminated with loading buffer containing 10mM EDTA and incubation on ice. The human genomic DNA samples were immediately separated on a 1% agarose gel containing SYBR Safe (ThermoFisher) in 0.5 X TBE buffer with initial switch time of 1.5 s and a final switch time of 3.5 s for 12 hours at 6 V/cm. DNA was further detected by chemiluminescence.
Figure S7. hgDNA cleavage activity of MIF and MIF2. (A) The MIF2 nuclease activity is Mg 2+- […]
BITC is a covalent inhibitor that can form covalent bond with the N-terminal proline.[11] (C) […]
(1 picture or pasted object on this page, not shown here)

B1: MIF: recombinant human macrophage migration inhibitory factor, tested as nuclease on hgDNA (protein, UniProt P14174 2-115, looked up)
Macrophage migration …: PMFIVNTNVPRASVPDGFLSELTQQLAQATGKPPQYIAVHVVPDQLMAFGGSSEPCALCSLHSIGKIGGAQNRSYSKLLCGLLAERLRISPDRVYINYYDMNAANVGWNNSTFA
B1: the “concentration giving complete hgDNA cleavage” value worked out at 1.25 µM.

B2: MIF2: recombinant human MIF2 (D-dopachrome tautomerase), tested as nuclease on hgDNA (protein, UniProt P30046 2-118, looked up)
D-dopachrome decarboxylase: PFLELDTNLPANRVPAGLEKRLCAAAASILGKPADRVNVTVRPGLAMALSGSTEPCAQLSISSIGVVGTAEDNRSHSAHFFEFLTKELALGQDRILIRFFPLESWQIGKIGTVMTFL
Take B2: the “concentration giving complete hgDNA cleavage” value is “above 10 μM”. Also, the “nuclease activity relative to MIF” value (lower activity than MIF) was 10 fold.
